Biological target: RPA (native, unlabeled heterotrimer) (human, UniProt P27694;P15927;P35244 1-616;1-270;1-121)
Experiment: FRET equilibrium titration

Chain of RPA (native, unlabeled heterotrimer) (P27694 whole entry, chain 1 of 3): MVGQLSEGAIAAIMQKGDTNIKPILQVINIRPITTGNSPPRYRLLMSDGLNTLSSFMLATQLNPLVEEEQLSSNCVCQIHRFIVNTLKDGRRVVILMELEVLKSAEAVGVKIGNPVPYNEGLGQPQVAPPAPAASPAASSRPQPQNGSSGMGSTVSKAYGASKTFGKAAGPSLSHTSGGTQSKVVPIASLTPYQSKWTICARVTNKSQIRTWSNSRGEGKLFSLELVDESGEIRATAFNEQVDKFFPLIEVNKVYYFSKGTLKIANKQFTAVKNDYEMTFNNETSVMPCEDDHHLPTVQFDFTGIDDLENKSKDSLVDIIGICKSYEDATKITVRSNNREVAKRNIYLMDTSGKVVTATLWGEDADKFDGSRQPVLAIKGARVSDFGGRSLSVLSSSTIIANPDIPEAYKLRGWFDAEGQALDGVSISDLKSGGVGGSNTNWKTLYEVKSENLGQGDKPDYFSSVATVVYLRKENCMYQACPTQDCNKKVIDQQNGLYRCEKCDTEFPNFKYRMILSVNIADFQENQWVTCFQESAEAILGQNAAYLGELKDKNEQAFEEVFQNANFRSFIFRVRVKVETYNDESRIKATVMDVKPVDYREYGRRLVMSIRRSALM
Chain of RPA (native, unlabeled heterotrimer) (P15927 whole entry, chain 2 of 3): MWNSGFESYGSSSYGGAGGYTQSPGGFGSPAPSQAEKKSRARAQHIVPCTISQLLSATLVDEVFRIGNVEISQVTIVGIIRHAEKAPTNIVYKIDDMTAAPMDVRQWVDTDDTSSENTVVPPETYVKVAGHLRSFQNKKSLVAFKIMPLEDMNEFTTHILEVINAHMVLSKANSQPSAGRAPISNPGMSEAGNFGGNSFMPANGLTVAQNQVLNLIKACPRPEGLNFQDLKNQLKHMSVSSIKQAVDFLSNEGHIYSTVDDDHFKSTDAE
Chain of RPA (native, unlabeled heterotrimer) (P35244 whole entry, chain 3 of 3): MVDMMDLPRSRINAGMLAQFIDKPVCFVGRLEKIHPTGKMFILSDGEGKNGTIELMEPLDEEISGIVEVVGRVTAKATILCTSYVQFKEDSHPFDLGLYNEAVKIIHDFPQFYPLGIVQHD

TTTTTTTTTTTTTTTTTTTTTTTTTTTTTT (ssDNA) [poly(dT)30-FRET]
binding result: binds
